{"source": "paper PMC8219780", "about": "“The MLKL kinase-like domain dimerization is an indispensable step of mammalian MLKL activation in necroptosis signaling” (Cell Death & Disease, 2021)", "molecules": {"B1": {"name": "human MLKL kinase-like domain, phosphomimic mutant T357E/S358D (179~471 aa), recombinant (domain or fragment, UniProt Q8NB16 179-471, looked up)", "chain": "YLPPKCMQEIPQEQIKEIKKEQLSGSPWILLRENEVSTLYKGEYHRAPVAIKVFKKLQAGSIAIVRQTFNKEIKTMKKFESPNILRIFGICIDETVTPPQFSIVMEYCELGTLRELLDREKDLTLGKRMVLVLGAARGLYRLHHSEAPELHGKIRSSNFLVTQGYQVKLAGFELRKTQEDMSLGTTREKTDRVKSTAYLSPQELEDVFYQYDVKSEIYSFGIVLWEIATGDIPFQGCNSEKIRKLVAVKRQQEPLGEDCPSELREIIDECRAHDPSVRPSVDEILKKLSTFSK", "notes": "Mixed lineage kinase domain-like protein (MLKL), human, kinase-like domain, residues 179-471, T357E/S358D; GST removed with HRV3C protease; residues of the site may remain at the N-terminus; source: Sf9 insect cells (baculovirus), purified (Glutathione Sepharose 4B, on-column HRV3C digestion, Superdex 75 or 200); not shown: GST, N-terminal, cleaved"}, "B2": {"name": "human MLKL kinase-like domain, wild-type (179~471 aa), recombinant (domain or fragment, UniProt Q8NB16 179-471, looked up)", "chain": "B1 chain with E179T, D180S", "notes": "Mixed lineage kinase domain-like protein (MLKL), human, kinase-like domain, residues 179-471; residues of the site may remain at the N-terminus; also called MLKL KLD; WT; source: Sf9 insect cells (baculovirus), purified (Glutathione Sepharose 4B, on-column HRV3C digestion, Superdex 75 or 200); not shown: GST, N-terminal, cleaved"}, "B3": {"name": "His-Sumo tagged human MLKL (126~181 aa), internal coiled-coil region, wild-type (domain or fragment, UniProt Q8NB16 126-181, looked up)", "chain": "PISQGASWAQEDQQDADEDRRAFQMLRRDNEKIEASLRRLEINMKEIKETLRQYLP", "notes": "Vector PET-SUMO; also called internal coiled-coil in brace region; source: E. coli BL21(DE3), purified (NTA resin, Superdex 200)"}}, "key": {"[1]": {"target": "Flag-tagged human MLKL kinase-like domain, phosphomimic mutant T357ES358D, expressed in HEK293T (human)", "assay": "cross-linking; whole-cell lysates of HEK293T cells expressing Flag-tagged MLKL KLD proteins (24 h); 500 uM DSG 30 min; SDS-PAGE, western blot anti-Flag"}, "[2]": {"target": "human MLKL kinase-like domain, phosphor-sites' mutant T357A/S358A (179~471 aa), recombinant (human) (UniProt Q8NB16)", "assay": "cross-linking; purified recombinant MLKL KLD proteins with 500 uM DSG, 30 min, room temperature; stopped with 100 mM Tris-HCl pH 7.5; SDS-PAGE, Coomassie"}, "[3]": {"target": "Flag-tagged mouse MLKL kinase-like domain, phosphomimic mutant S345D, expressed in HEK293T (mouse) (UniProt Q9D2Y4)", "assay": "cross-linking; whole-cell lysates of HEK293T cells expressing Flag-tagged MLKL KLD proteins (24 h); 500 uM DSG 30 min; SDS-PAGE, western blot anti-Flag"}, "[4]": {"target": "the molecule itself", "assay": "SEC; gel filtration of purified recombinant human MLKL KLD proteins on Superdex 75; fractions on SDS-PAGE, Coomassie; standards BSA 67 kDa, ovalbumin 44 kDa, ribonuclease A 14 kDa"}, "[5]": {"target": "the molecule itself", "assay": "cross-linking; purified recombinant MLKL KLD proteins with 500 uM DSG, 30 min, room temperature; stopped with 100 mM Tris-HCl pH 7.5; SDS-PAGE, Coomassie"}, "[6]": {"target": "the molecule itself", "assay": "SEC; gel filtration of purified His-Sumo tagged human MLKL (126~181 aa) on Superdex 200; fractions on SDS-PAGE, Coomassie"}}, "note": "Where a chain is given by its changes, count along the chain named. Names and notes keep the numbering of the source.", "data": [{"molecule": "Flag-tagged human MLKL kinase-like domain, phosphomimic mutant T357ES358D, expressed in HEK293T (domain or fragment)", "values": [{"measurement": "stoichiometry N", "setting": "[1]", "result": 2}]}, {"molecule": "human MLKL kinase-like domain, phosphor-sites' mutant T357A/S358A (179~471 aa), recombinant (from UniProt Q8NB16 179-471) (domain or fragment)", "values": [{"measurement": "stoichiometry N", "setting": "[2]", "result": 2}]}, {"molecule": "Flag-tagged mouse MLKL kinase-like domain, phosphomimic mutant S345D, expressed in HEK293T (from UniProt Q9D2Y4 192-456) (domain or fragment)", "values": [{"measurement": "stoichiometry N", "setting": "[3]", "result": 2}]}, {"molecule": "B1", "values": [{"measurement": "stoichiometry N", "setting": "[4]", "result": 2}]}, {"molecule": "B2", "values": [{"measurement": "stoichiometry N", "setting": "[5]", "result": 2}]}, {"molecule": "B3", "values": [{"measurement": "binding result", "setting": "[6]", "result": "binds"}]}]}
